In paper PMC10509265:

Biological target: IP3R-type 2 (UniProt Q9Z329)
Test: anti-IP3R2 co-IP from heart lysate
Settings: reference: wild type heart after TAC; sites S14

- binding against the reference: stronger
Substance: Bcl-xL (from UniProt Q64373) S14A knock-in heart after TAC
